In a protein production outcome set (Wang et al. 2014) one finds protein production data, which are given here for eight sequences.

A short description of this data set: label from the status in PepcDB records.
For “MQTNLLSRPTSAKSTSMSDKINHPQLCQWLESVAISRDKQAFTHLFQFFAPKILRIARGKFPNEAQANEVVQDTMSNVWRKAHLYNQDKGAATTWVYTVMRNVTFDMLRKIQGNKEDNLSDDIWPIAESMSIENEIFDDHLEHANLLSVIEELPQAQQDVVKGFYFREMSQEQLAVHLHLPLGTVKSRLRLALGKLKVQLGEKHD”, the protein production result is recorded as “failed”.
Turning to “MVSIDTLIFQALNSSKFHPLYSPSINSINLQDDWAEKEGKEELSSILLLHRKASPPPPISALPNRNHKLQPLNLLFIDFPGQSFQQRERFRQFTASVRVYYVNDRKLNVQEGALIFFVRGVRYSLPLRELCDIYGFDNDLIGVALPGQFKDAQIFWSRFSNGIYDSKDAVHSEIRHLVLRYLVRLISSTLFCKMEPGKMRLSELLVLYHVVHDFFPDSLRFEEVDRDVNVGAVFAHHLVSLKTKPFTGRGKKLERVGSLLTPIFEHFRISFEGEELPCTALTKITSEHEELSFCPDPSLMHAAPRTRRHRGLASRSAPTQTEDEFIDPAEGLRVGSSSSALPYQLPSPPPIPMEPHVFQQYVVDSFKSVWNAIATLSR”, the protein production entry is given as “failed”.
Regarding “MFTRRGDQGETDLANRARVGKDSPVVEVQGTIDELNSFIGYALVLSRWDDIRNDLFRIQNDLFVLGEDVSTGGKGRTVTREMIDYLEARVKEMKAEIGKIELFVVPGGSIESASLHMARAVSRRLERRIVAASKLTEINKNVLIYANRLSSILFMHALLSNKRLNIPEKIWSIHRVS”, the protein production result was “not failed”.
With “MVAGRRKVVPGLVLLCLGALLARSLSVLIGINELLLAIALGAVLVNTVGIPERFRHGTATYNIWLAAGIVLLGSSLTVGMIIEVGATVLLLLVAAVTLTLVTVEVLARNVAGVTDRFGSLLAAGAGICGVSAVAAVGGAVRAKEMHIAYAAGVVLLVDAVTIVVYPIVGAVLDLPDVVFGVWAGVSMLSTGPVVAVGFAHSEVAGQWATITKLARNALIGVVALGYASYYARRGAGGSTSVRMLWENFPKFVLGFLVLVGLASLGAFSPAQQDMISTVVDWLFLLAFVGLGTQIRTAELRATGITPALIVFAAVLLVSVLSLAAALVVL”, the protein production result is “failed”.
To “MDPITHGALGAACAQAALGKYDKRIPWQAGALAGMAPDLDVFIRFSQEPLSLEQWHRYLTHSLMFIPIGGLIVALFLLCFSQYRQYWKITIGASLVGYATHCLLDSLTSYGTVLFWPWSDSRISWDIISIIDPVFTLPLLLGTAWSVIYQNQKAVIASLFFCILFLIFNTILHNRAVDGIHQYATTNNFKINHPRALPKLASSTYWRIIAKQQDCLIIAEAKTSLFYPTTIRLIRQALSFNESMIPFALSSGQKSDLATFHWFTDGFLIVANKNPLILADARYTIDDNPIFSLWGIEILPGQEHINKLSLPKINEYCESPDSERYKEDGLN” belongs “failed”.
In the case of “MEWLEQLLGKEWSLVPAGGVTGDAYIAQNGQQKLFLKRNTSPFLAVLSAEGIVPKLLWTRRVTNGDVISAQKWLPGQKLEPEDMKLERVAKLLKKIHSSKALVQMIQRLGKQPLHAQELLQQLQLVLRGDIRDEETIQQGLQYLMDSLKDIEYNEFVVCHCDVNHNNWLLSDEDELFLIDWDGAVIADPALDLGMLLYWYIPRQEWSEWLGYYDIEMDESLLKRMRWYVIAQTILSIQWHTTKKQQAEAEYWHQYLQQLLASE” it was “failed”; in that of “MGFYLGITALKSIGNNKNNNIDNENNHQAKILTFPVSFTCRTFLPARGDILQGTVKKVLWNGAFIRSGPLRYAYLSLLKMPHYHYVHSPLSEDEKPHFQKDDLSKIAVGVVVRFQVLAVRFKERPHKRRNDYYVLATLEGNGSFGP”, “not failed”.
To “SDQTRYSRLANITKIINTKLELREVLQRVTMAISEEIVRCDAVGIYLPEEDGTFRGFAGKPETINGVTLDTQVIDPGIDLLAKEVIETKKTIYIPDTSKDYRPDPRPVDAFKIKSLLALPISFGQELFGLVFLFDYGVPMNLTDSEIQSVEAYVNMAAVAIQNAKNLTQKENLIAEKQLLLNVTRDLSVCSS” belongs “failed”.
